The target in test [1] is human NRP2 endogenously expressed on cell lines (human) (UniProt O60462). The test is described as follows: flow cytometry on A549 WT cells.
Test [2] concerns the target T1, human NRP2 variant 2 (NM_003872) over-expressed on Expi293-hNRP2 clonal cells (human, UniProt O60462 23-931).
T1 sequence: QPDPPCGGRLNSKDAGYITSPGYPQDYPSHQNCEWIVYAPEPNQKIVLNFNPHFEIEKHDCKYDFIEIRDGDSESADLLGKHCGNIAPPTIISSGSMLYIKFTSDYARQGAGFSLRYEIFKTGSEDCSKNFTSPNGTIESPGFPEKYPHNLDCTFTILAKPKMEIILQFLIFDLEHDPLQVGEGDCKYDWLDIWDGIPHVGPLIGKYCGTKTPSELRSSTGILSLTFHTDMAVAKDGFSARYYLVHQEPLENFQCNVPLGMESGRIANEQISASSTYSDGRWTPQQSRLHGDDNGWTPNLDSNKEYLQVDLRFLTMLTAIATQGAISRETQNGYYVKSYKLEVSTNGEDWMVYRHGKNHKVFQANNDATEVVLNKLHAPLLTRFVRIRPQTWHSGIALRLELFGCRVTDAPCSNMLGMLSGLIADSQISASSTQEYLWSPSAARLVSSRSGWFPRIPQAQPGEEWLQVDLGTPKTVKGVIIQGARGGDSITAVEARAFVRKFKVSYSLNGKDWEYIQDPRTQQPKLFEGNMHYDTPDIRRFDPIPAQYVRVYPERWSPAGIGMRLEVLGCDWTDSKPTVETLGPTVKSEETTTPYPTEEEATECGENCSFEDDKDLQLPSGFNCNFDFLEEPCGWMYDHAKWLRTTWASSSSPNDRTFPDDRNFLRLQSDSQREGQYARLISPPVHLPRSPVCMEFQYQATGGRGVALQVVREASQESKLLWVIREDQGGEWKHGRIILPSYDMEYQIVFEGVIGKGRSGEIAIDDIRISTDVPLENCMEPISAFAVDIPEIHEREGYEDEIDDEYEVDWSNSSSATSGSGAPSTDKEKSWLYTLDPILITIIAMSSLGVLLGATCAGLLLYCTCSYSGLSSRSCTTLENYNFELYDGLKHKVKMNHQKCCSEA
The test is described as follows: flow cytometry on Expi293-hNRP2 cells, 0.05-100 nM, rabbit anti-VEGF-C detection. On the procedure:
(§1) To assess the ability of the anti-NRP2 antibodies to displace the binding of VEGF-C, Semaphorin 3F and HRS polypeptides, flow cytometry was used. Binding of recombinant human VEGF-C (R&D Cat#9199-VC-025, untagged), Sema3F-Fc (R&D Cat#9878-S3-025, Fc chimera protein) or Sema3F-p95m (prepared In-house), Myc-tagged Sema3F-p95 R583A R586A-1359) to Expi293-hNRP2 cells over expressing human NRP2 were determined by immunostaining assay as described in Example 4. Studies were conducted with cells incubated with each of these proteins at 0.05 - 100 nM at 3-fold dilutions on ice for 1 hour. Cells were then washed and stained with secondary and/or detection antibodies as described previously. […] Sema3F-Fc was detected by a Cy3-conjugated goat anti-human Fc IgG (Jackson ImmunoResearch Cat#109165098). Sema3F-p95m was detected by an AF555-conjugated anti-Myc antibody (ThermoFisher Cat#MA1980A555).
(§2) Binding curves were fit and EC₅₀ values determined as described above. VEGF-C was determined to bind to Expi293-hNRP2 cells with an EC₅₀ of 0.6 nM. Sema3F-Fc was determined to bind to Expi293-hNRP2 cells with an EC₅₀ of ^{~}8.2 nM, and Sema3F-p95m bound to Expi293-hNRP2 cells with an with EC₅₀ of 5.7 nM.

For test [3], the target named is T1, human NRP2 variant 2 (NM_003872) …. Briefly: flow cytometry on Expi293-hNRP2 cells, 0.05-100 nM, anti-human Fc detection. On the procedure:
as §1, §2

Test [4] has the same target. Briefly: flow cytometry on Expi293-hNRP2 cells, 0.05-100 nM, anti-Myc detection. On the procedure:
as §1, §2

Changes are numbered by the printed parent chain. Numbers in names are those of the source. Where “and” joins values, the source holds several entries; their conditions need not be identical. Equal values may be shown once.

“C9-PE Santa Cruz Biotech anti-NRP2 antibody”: the Fold change of a-NRP2 to Ctl (FC) in test [1] came out at 6 fold.

Turning to “C9-AF647 Santa Cruz Biotech anti-NRP2 antibody”, the Fold change of a-NRP2 to Ctl (FC) in test [1] was 2.6 fold and 1.8 fold.

B1: recombinant human VEGF-C (R&D Systems #9199-VC) (ligand, UniProt P49767 103-227, looked up)
chain: TEETIKFAAAHYNTEILKSIDNEWRKTQCMPREVCIDVGKEFGVATNTFFKPPCVSVYRCGGCCNSEGLQCMNTSTSYLSKTLFEITVPLSQGPKPVTISFANHTSCRCMSKLDVYRQVHSIIRR
notes: Bought reagent
As for B1, the EC50 in test [2] worked out at 0.6 nM.

B2: Human SEMA3F-Fc (R&D Systems #9878-S3) (Fc fusion, UniProt Q13275 19-779, looked up)
chain: SFPTQDHLPATPRVRLSFKELKATGTAHFFNFLLNTTDYRILLKDEDHDRMYVGSKDYVLSLDLHDINREPLIIHWAASPQRIEECVLSGKDVNGECGNFVRLIQPWNRTHLYVCGTGAYNPMCTYVNRGRRAQATPWTQTQAVRGRGSRATDGALRPMPTAPRQDYIFYLEPERLESGKGKCPYDPKLDTASALINEELYAGVYIDFMGTDAAIFRTLGKQTAMRTDQYNSRWLNDPSFIHAELIPDSAERNDDKLYFFFRERSAEAPQSPAVYARIGRICLNDDGGHCCLVNKWSTFLKARLVCSVPGEDGIETHFDELQDVFVQQTQDVRNPVIYAVFTSSGSVFRGSAVCVYSMADIRMVFNGPFAHKEGPNYQWMPFSGKMPYPRPGTCPGGTFTPSMKSTKDYPDEVINFMRSHPLMYQAVYPLQRRPLVVRTGAPYRLTTIAVDQVDAADGRYEVLFLGTDRGTVQKVIVLPKDDQELEELMLEEVEVFKDPAPVKTMTISSKRQQLYVASAVGVTHLSLHRCQAYGAACADCCLARDPYCAWDGQACSRYTASSKRRSRRQDVRHGNPIRQCRGFNSNANKNAVESVQYGVAGSAAFLECQPRSPQATVKWLFQRDPGDRRREIRAEDRFLRTEQGLLLRALQLSDRGLYSCTATENNFKHVVTRVQLHVLGRDAVHAALFPPLSMSAPPPPGAGPPTPPYQELAQLLAQPEVGLIHQYCQGYWRHVPPSPREAPGAPRSPEPQDQKKPRNRR
notes: Bought reagent; not shown: Fc of the bought chimera (detected with anti-human Fc)
Regarding B2, the 50% effective concentration (EC50) in test [3] is about 8.2 nM.

B3: Sema3F-p95m (Myc-tagged Sema3F-p95 R583A R586A-1359) (ligand, UniProt Q13275 19-779, looked up)
chain: B2 chain with R565A, R568A
notes: not shown: Myc tag
The molecule B3 gave an EC50 in test [4] of 5.7 nM.

Values taken from US20230312730A1 (ATYR PHARMA, published 2023).
